In the Immune Epitope Database (IEDB) one finds IC50 data, which are given here for 19 sequences.

Test [1] has as its target HLA-A*03:01. The test is described as follows: IEDB peptide-MHC binding, cellular MHC/competitive/fluorescence; ≥ and ≤ were set here for values at or beyond the usual limits of such assays.
Test [2] concerns the target HLA-A*11:01. Described as above.
Test [3] has as its target HLA-A*31:01. The description is as above.
Test [4] deals with HLA-A*33:01. Described as above.
Test [5] addresses HLA-A*68:01. The description is as above.
Test [6] has as its target HLA-A*01:01. The description is as above. The note with it: source organism: Vaccinia virus WR.
In test [7] the target is HLA-A*26:01. Described as above. The note with it: source organism: Vaccinia virus WR.
Test [8] has as its target HLA-A*29:02. The description is as above. The note with it: source organism: Vaccinia virus WR.
The target of test [9] is HLA-A*23:01. Kind of test: IEDB peptide-MHC binding, purified MHC/competitive/radioactivity; ≥ and ≤ were set here for values at or beyond the usual limits of such assays. The note with it: source organism: Vaccinia virus WR.
The target in test [10] is HLA-A*24:02. The test is described as above. The note with it: source organism: Vaccinia virus WR.
Test [11] concerns the target HLA-A*30:02. The test is described as above. The note with it: source organism: Vaccinia virus WR.
Test [12] concerns the target HLA-A*02:01. Kind of test: IEDB peptide-MHC binding, cellular MHC/competitive/fluorescence; ≥ and ≤ were set here for values at or beyond the usual limits of such assays. The note with it: source organism: Vaccinia virus WR.
Test [13] has as its target HLA-A*02:02. Described as above. The note with it: source organism: Vaccinia virus WR.
Test [14] deals with HLA-A*02:03. The test is described as above. The note with it: source organism: Vaccinia virus WR.
In test [15] the target is HLA-A*02:06. The test is described as above. The note with it: source organism: Vaccinia virus WR.
Test [16] has as its target HLA-A*23:01. Described as above. The note with it: source organism: Vaccinia virus WR.
For test [17], the target named is HLA-A*24:02. Described as above. The note with it: source organism: Vaccinia virus WR.
Test [18] has as its target HLA-A*30:02. The description is as above. The note with it: source organism: Vaccinia virus WR.
Test [19] has as its target HLA-A*68:02. The test is described as follows: IEDB peptide-MHC binding, purified MHC/competitive/radioactivity; ≥ and ≤ were set here for values at or beyond the usual limits of such assays.
In test [20] the target is HLA-A*68:02. The test is described as follows: IEDB peptide-MHC binding, cellular MHC/competitive/fluorescence; ≥ and ≤ were set here for values at or beyond the usual limits of such assays.
For test [21], the target named is HLA-A*02:02. The test is described as follows: IEDB peptide-MHC binding, purified MHC/competitive/radioactivity; ≥ and ≤ were set here for values at or beyond the usual limits of such assays.
Test [22] has as its target HLA-A*02:03. Described as above.
Test [23] concerns the target HLA-A*02:06. Described as above.
In test [24] the target is HLA-A*03:01. Described as above.
Test [25] addresses HLA-A*31:01. Described as above.
The target of test [26] is HLA-A*68:01. The description is as above.
The target in test [27] is HLA-A*02:01. The description is as above.
Test [28] deals with HLA-A*33:01. The description is as above.
Where [29] appears, read: source organism: Mammarenavirus juninense.
[30] abbreviates: source organism: Vaccinia virus WR.
[31] abbreviates: source organism: Hepatitis B virus.
Where [32] appears, read: source organism: Mammarenavirus choriomeningitidis.
The mark [33] stands for this setting: source organism: Mammarenavirus lassaense.
Where [34] appears, read: source organism: Mammarenavirus guanaritoense.

Some results are limits rather than exact numbers.

As to ACQEAVKLK, the IC50 is 16.7 µM in test [1] (setting [29]); 6.7 µM in test [2] (setting [29]); at least 70 µM in test [3] (setting [29]); at least 70 µM in test [4] (setting [29]); at least 70 µM in test [5] (setting [29]).
For AQQFCQYLI, the IC50 is 32.4 µM in [6]; 49 µM in test [7]; 45.4 µM in test [8]; 0.085 µM in test [9]; 0.313 µM in test [10]; 0.748 µM in test [11].
Consider EQRRSTIFDI, for which the IC50 was determined as 17.7 µM in test [6]; 22.5 µM in [12]; 23 µM in [13]; 11.5 µM in [14]; 25.5 µM in [15]; 50.8 µM in test [16]. Besides, the IC50 in test [17] was at least 70 µM; in [7], at least 70 µM; in [8] it was at least 70 µM; in [18] it was at least 70 µM; in test [19] (setting [30]), 1.03 µM.
In the case of FIIFLFILL, the IC50 in [2] (setting [31]) came out at 8.98 µM; in [20] (setting [31]), 10.1 µM; in test [21] (setting [31]), 0.627 µM; in test [22] (setting [31]) it was 1.05 µM; in test [23] (setting [31]) it was 0.9 µM; in test [24] (setting [31]) it was 0.953 µM. Further, the figures for the IC50 in test [25] (setting [31]) and in [26] (setting [31]) were 0.45 µM and 3.2 µM, respectively.
In the case of FIIFLFILLL, the IC50 in test [2] (setting [31]) amounted to 7.47 µM; in test [27] (setting [31]), 0.105 µM; in [21] (setting [31]) it was 0.441 µM; in test [22] (setting [31]) it was 0.181 µM; in test [23] (setting [31]) it was 1.42 µM; in test [24] (setting [31]), 0.139 µM. Also, the figures for the IC50 in test [25] (setting [31]), in test [26] (setting [31]) and in test [19] (setting [31]) were 0.692 µM, 3.7 µM and 0.737 µM, respectively.
For FLFILLLCLI, the 50% inhibitory concentration (IC50) in test [2] (setting [31]) was found to be 9.73 µM; in test [27] (setting [31]) it was 0.135 µM; in test [21] (setting [31]) it was 0.956 µM; in test [22] (setting [31]) it was 1.98 µM; in test [23] (setting [31]) it was 0.934 µM; in test [24] (setting [31]), 0.716 µM. Also, the figures for the IC50 in test [25] (setting [31]), in test [26] (setting [31]) and in test [19] (setting [31]) were 0.215 µM, 3.69 µM and 4.5 µM, respectively.
With FQESFYEDI, the IC50 in test [6] was at least 70 µM; in [12], 12.9 µM; in [7] it was at least 70 µM; in [8] it was 58.2 µM; in test [18] it was at least 70 µM; in [20] (setting [30]) it was 36.8 µM. Moreover, the IC50 in [21] (setting [30]) was 2.28 µM; in [22] (setting [30]), 4.42 µM; in test [23] (setting [30]) it was 0.185 µM; in test [9], 0.263 µM; in [10] it was 0.44 µM.
Take LLTACTIFYI: the IC50 in test [2] (setting [30]) was 18.8 µM; in test [4] (setting [30]), 7.39 µM; in test [27] (setting [30]) it was 0.0057 µM; in [24] (setting [30]), 0.829 µM; in test [25] (setting [30]), 0.627 µM; in test [26] (setting [30]), 4.37 µM.
As for LQDIVNEHDI, the IC50 in test [6] was at least 70 µM; in test [12], 23.3 µM; in [13], 7.63 µM; in test [14], 38.2 µM; in test [15], 10.8 µM; in test [16], at least 70 µM. For the same sequence, the IC50 in test [17], in test [7], in [8], in [18] and in test [20] (setting [30]) was at least 70 µM in each case.
Regarding LQQNNSFII, the IC50 in test [6] came out at 40.2 µM; in test [13], 11.7 µM; in test [14] it was 5.17 µM; in test [16], 8.91 µM; in test [7] it was 11.5 µM; in test [8], 18.6 µM. Also, the IC50 stood at 40.8 µM in test [18]; 69.8 µM in [20] (setting [30]); 1.59 µM in test [27] (setting [30]); 0.423 µM in [23] (setting [30]); 2.36 µM in [10].
Take RQVSVKLLI: the IC50 is 23.8 µM in test [6]; 17.9 µM in test [13]; 6.34 µM in test [7]; at least 70 µM in [8]; 15.1 µM in [20] (setting [30]); 0.25 µM in test [27] (setting [30]). In addition, the IC50 in test [22] (setting [30]) came to 0.254 µM; in [23] (setting [30]) it was 0.00013 µM; in [9] it was 0.835 µM; in [10] it was 2.54 µM; in [11] it was 0.519 µM.
SQAKKPEVRI: the IC50 in test [6] is at least 70 µM; in test [12] it was 46.3 µM; in test [13] it was 10.7 µM; in test [15], 5.86 µM; in test [16] it was 51.7 µM; in test [17] it was 32.1 µM. Besides, the IC50 is at least 70 µM in test [7]; at least 70 µM in test [8]; at least 70 µM in test [18]; 2.37 µM in test [22] (setting [30]); 1.67 µM in [19] (setting [30]).
With TLMSIVSSLH, the IC50 is 9.54 µM in test [2] (setting [32]); 11.4 µM in [3] (setting [32]); at least 70 µM in [4] (setting [32]); 6.62 µM in test [5] (setting [32]); 3.95 µM in [24] (setting [32]).
On to TSAYLISIFL, for which the IC50 is 9.21 µM in [1] (setting [32]); at least 70 µM in test [2] (setting [32]); 3.1 µM in test [3] (setting [32]); 2.18 µM in [28] (setting [32]); 1.15 µM in [26] (setting [32]).
For TSFYLISIFL, the IC50 is 8.09 µM in test [2] (setting [33]), at least 70 µM in test [3] (setting [33]), 31.1 µM in test [4] (setting [33]) and 1.91 µM in test [26] (setting [33]).
On to TTSLFLHLV, for which the IC50 in test [2] (setting [34]) came to 15.4 µM; in [5] (setting [34]) it was 11.1 µM; in test [25] (setting [34]), 0.726 µM; in [28] (setting [34]), 2.27 µM.
VQSVLRDISI: the IC50 in test [6] was 15.6 µM; in test [17] it was 25.4 µM; in test [7] it was 6.66 µM; in [8], at least 70 µM; in test [18], 19.7 µM; in test [27] (setting [30]), 0.497 µM. For the same sequence, the IC50 worked out at 0.078 µM in [21] (setting [30]); 0.541 µM in [22] (setting [30]); 0.132 µM in [23] (setting [30]); 3.5 µM in [9]; 1.29 µM in test [19] (setting [30]).
For VQYRILPMII, the IC50 in test [6] is 34.6 µM; in test [12] it was 9.33 µM; in test [13], 10.1 µM; in test [7], at least 70 µM; in test [8], at least 70 µM; in test [18], 7.85 µM. For the same sequence, the IC50 in [20] (setting [30]) was determined as 21.4 µM; in test [22] (setting [30]), 0.606 µM; in test [23] (setting [30]) it was 0.395 µM; in test [9], 0.567 µM; in test [10], 1.61 µM.
In the case of YQNEVTPEYI, the IC50 in test [6] is at least 70 µM; in test [16], 26.9 µM; in test [17], at least 70 µM; in [7] it was at least 70 µM; in test [8], 19.4 µM; in [18] it was 8.74 µM. The IC50 worked out at 8.57 µM in [20] (setting [30]); 0.0081 µM in test [27] (setting [30]); 0.0027 µM in test [21] (setting [30]); 0.00021 µM in test [22] (setting [30]); 0.0026 µM in test [23] (setting [30]).

In general, IC50 refers to the midpoint of a concentration-inhibition curve.
